Holding throughout (details): both partners purified
The target in test [1] is T1, SARS-CoV-2 spike receptor-binding domain (RBD), Gamma variant (SARS-CoV-2, Gamma variant (P.1), E484K | N501Y).
T1 construct: not shown: His tag, C-terminal, kept
In words: BLI. A general note: In BLI a coated tip is dipped into the sample, and binding shifts an interference pattern.

Test [2] deals with T2, SARS-CoV-2 spike receptor-binding domain (RBD), Delta variant (SARS-CoV-2, Delta variant (B.1.617.2), L452R | T478K).
T2 construct: not shown: His tag, C-terminal, kept
The test can be described thus: BLI.

Test [3] has as its target T3, SARS-CoV-2 spike receptor-binding domain (RBD), Alpha variant (SARS-CoV-2, Alpha variant (B.1.1.7), N501Y).
T3 construct: not shown: His tag, C-terminal, kept
In words: BLI.

Test [4] deals with SARS-CoV-2 spike hexapro, prefusion stabilized spike ectodomain trimer (SARS-CoV-2, Wuhan, UniProt P0DTC2, stabilised). In words: cryo-EM structure.
Test [5] addresses T4, SARS-CoV-2 spike receptor-binding domain (RBD), Delta variant (SARS-CoV-2, Delta variant (B.1.617.2), L452R | T478K).
T4 construct: not shown: His tag, C-terminal, kept
In words: BLI. The source holds these as a separate data set.

The target of test [6] is T5, SARS-CoV-2 spike receptor-binding domain (RBD), Alpha variant (SARS-CoV-2, Alpha variant (B.1.1.7), N501Y).
T5 construct: not shown: His tag, C-terminal, kept
In words: BLI. This is another data set of the same source.

In test [7] the target is T6, SARS-CoV-2 spike receptor-binding domain (RBD), Wuhan isolate (SARS-CoV-2, Wuhan, UniProt P0DTC2).
T6 construct: not shown: His tag, C-terminal, kept
The test can be described thus: BLI.

The target of test [8] is T7, SARS-CoV-2 spike receptor-binding domain (RBD), Gamma variant (SARS-CoV-2, Gamma (P.1), E484K | N501Y).
T7 construct: not shown: His tag, C-terminal, kept
In words: BLI.

Results on 4 molecules are retold here after article PMC9097876 (Science Immunology, 2022).

B1: G32Q4 Fab (Fab, V domains shown)
VH: QVQLVESGGGVVQPGRSLRLSCAASGFTFSRYAMQWVRQAPGKGLEWVAVISYDGNNRYYADSVKGRFTISRDNSKNTLYLQMNSLRAEDTAVYYCARGPPGYYDSSGYYQTPEYFQHWGQGTLVTVSS
VL: QSVLTQPPSVSGAPGQRVTISCTGSSSNIGVGYDVHWYQQFPGTVPKLLIYGNSNRPSGVPDRFSGSKSGTSASLAITGLQAEDEADYYCQSYDSSLSGVVFGGGTKLTVL
Take B1: the koff – broadly, the first-order rate constant of dissociation – worked out at 0.0025 s⁻¹ in test [1], 0.0062 s⁻¹ in test [2] and 0.007 s⁻¹ in test [3]. For the same molecule, the kon (in general, the second-order rate constant of association) in test [1] came to 2e+06 M⁻¹ s⁻¹; in test [2], 1.2e+06 M⁻¹ s⁻¹; in test [3] it was 930000 M⁻¹ s⁻¹.

B2: G32Q4 Fab (Fab, V domains shown)
VH: B1 VH
VL: B1 VL
For the molecule B2, the binding result in test [4] is given as “binds”. Moreover, the Kd – broadly, the constant that tells how readily two partners part at equilibrium – in test [5] worked out at 53 nM; in test [6], 75 nM; in test [7] it was 57 nM; in test [8], 13 nM.

B3: C98C7 Fab (Fab, V domains shown)
VH: EVQLVESGGGLVQPGGSLRLSCAASGITVSSNYMSWVRQAPGKGLEWVSVIYSGGSTFYADSVKGRFTISRDNSKNTLYLQMSSLRAEDTAVYYCARDLVVFGMDVWGQGTTVTVSS
VL: EIVLTQSPGTLSLSPGETATLSCRASQSVGSSYLTWYQQKPGQAPRLLIYGASSRATGIPDRFSGSGSGTDFTLTISRLEPEDFAVYYCQHYGSSPTFGQGTKVEIK
On to B3, for which, in test [2], the Kd was 3.5 nM, the koff is 0.00099 s⁻¹ and the kon was 280000 M⁻¹ s⁻¹.

B4: C98C7 Fab (Fab, V domains shown)
VH: B3 VH
VL: B3 VL
For B4, in test [4], the binding result is given as “binds”. Moreover, the Kd stood at 3 nM in test [5], 6 nM in test [6], 3 nM in test [7] and 1 nM in test [8].
